B1: EGFP sgRNA-staple 3, in DX tile with HDR DNA scaffold (ssRNA)
RNA: GCUGAAGCACUGCACGCCGUGUUUUAGAGCUAUGCUGUUGAAAAACAGCAUAGCAAGUUAAAAUAAGGCUAGUCCGUUAUCAACUUGAAAAAGUGGCACCGAGUCGGUGCUUUUUCUGGCCCACCCUCAGCCGCUACCCCGACCACAUGAGCCCGUGCC
B2: PCSK9 sgRNA with 3' staple extension (PB84), folded in DNA pentagonal bipyramid (ssRNA)
RNA: GGCUGAUGAGGCCGCACAUGGUUUUAGAGCUAUGCUGUUCUUCGGAACAGCAUAGCAAGUUAAAAUAAGGCUAGUCCGUUAUCAACUUGAAAAAGUGGCACCGAGUCGGUGCAAAAAUCACCCAGAAACGCUGGUGAAAGUGUAUGAGUAUUCAACAUUUCCGUGUCGCCCUUGUUUUUGCUGCAG

Assays:
SpCas9 [1] = target: T1, SpCas9 (Streptococcus pyogenes, UniProt Q99ZW2 Q99ZW2:1-1368); experiment: EMSA; DX tile band shifted toward well on annealing with Cas9; sgRNA maintained after RNase H; settings: sgRNA fused to central RNA staple of DX tile
T1 sequence (Q99ZW2 whole entry, the tested form may be a part, one chain of several): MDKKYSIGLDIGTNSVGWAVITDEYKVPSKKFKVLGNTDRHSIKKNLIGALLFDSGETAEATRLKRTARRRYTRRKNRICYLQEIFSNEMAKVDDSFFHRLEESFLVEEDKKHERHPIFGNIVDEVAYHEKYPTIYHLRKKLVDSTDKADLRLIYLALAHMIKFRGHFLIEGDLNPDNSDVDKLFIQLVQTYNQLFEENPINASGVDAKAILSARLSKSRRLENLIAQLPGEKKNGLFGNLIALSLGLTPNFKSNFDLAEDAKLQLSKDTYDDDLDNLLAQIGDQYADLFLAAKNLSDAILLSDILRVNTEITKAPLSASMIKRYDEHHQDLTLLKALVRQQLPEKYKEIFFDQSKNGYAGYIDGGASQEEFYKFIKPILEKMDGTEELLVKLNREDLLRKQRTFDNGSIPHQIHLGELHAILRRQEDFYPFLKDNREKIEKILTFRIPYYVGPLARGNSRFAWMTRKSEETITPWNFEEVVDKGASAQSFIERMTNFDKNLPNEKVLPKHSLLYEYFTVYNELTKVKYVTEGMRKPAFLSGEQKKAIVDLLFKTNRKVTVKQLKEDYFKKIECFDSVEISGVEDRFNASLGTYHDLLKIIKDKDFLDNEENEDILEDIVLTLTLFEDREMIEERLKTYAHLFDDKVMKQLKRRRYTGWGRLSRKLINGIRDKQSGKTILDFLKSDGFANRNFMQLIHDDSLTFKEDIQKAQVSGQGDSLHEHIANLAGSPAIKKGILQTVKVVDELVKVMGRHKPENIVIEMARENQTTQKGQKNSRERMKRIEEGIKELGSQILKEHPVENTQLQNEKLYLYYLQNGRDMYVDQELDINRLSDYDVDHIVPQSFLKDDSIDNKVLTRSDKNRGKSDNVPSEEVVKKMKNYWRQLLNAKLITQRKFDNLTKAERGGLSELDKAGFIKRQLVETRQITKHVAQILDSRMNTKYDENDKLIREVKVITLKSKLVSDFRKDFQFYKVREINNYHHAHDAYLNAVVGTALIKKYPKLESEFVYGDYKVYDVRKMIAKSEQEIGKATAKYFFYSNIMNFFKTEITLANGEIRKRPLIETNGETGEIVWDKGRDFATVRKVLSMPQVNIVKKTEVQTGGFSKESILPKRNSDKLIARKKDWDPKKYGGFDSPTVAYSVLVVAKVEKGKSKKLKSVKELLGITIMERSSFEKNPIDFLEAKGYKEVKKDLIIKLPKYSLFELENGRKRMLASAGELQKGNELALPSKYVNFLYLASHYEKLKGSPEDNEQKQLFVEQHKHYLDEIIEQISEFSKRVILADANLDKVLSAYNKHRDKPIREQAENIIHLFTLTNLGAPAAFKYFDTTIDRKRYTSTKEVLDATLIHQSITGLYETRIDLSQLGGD
Protocol: Dx-tiles were made either containing the Gint or broccoli aptamers. To prepare the folded DX-tiles, the components (e.g., DNA scaffold, two flanking/end staples encoding either the Gint (i.e., Gint4.T and Gint21.T) or broccoli aptamers, and central staple) were mixed in equimolar concentrations and allowed to anneal over 2 hours from 95 C to 25 C. The resulting structures were visualized by gel electrophoresis.
Several bands were originally visualized, showing impurities in the production. […] Given that staple 2 spans across the region targeted by the sgRNA and could therefore contribute to misfolding, in a repeat experiment, staple 2 was left out of the folding mixture. This yielded higher folding. Upon addition and annealing with Cas9, the DX tile band was closer to the well on the gel. Addition of RNase H both with and without Cas9 released the HDR template.

SpCas9 [2] = target: T1, SpCas9; experiment: EMSA; 5x molar Cas9 shifted nanoparticle band into the well; settings: sgRNA whose 3' extension hybridises to DNA scaffold
Protocol: The DNA was amplified and purified by Qiagen, and transcribed using the NEB T7 HiScribe kit modified for short RNA production, and purified by PAGE purification. It was then folded with 50 mM HEPES-KOH pH 7.5, 300 mM KCl following the RNA/DNA hybrid folding protocol. The excess staples were purified away from the PB84 with a 100 kDa MWCO filter. A 2% high resolution agarose gel with 1×TAE buffer and 4 mM Mg-acetate was run at 4 C in the cold room at 65V for 180 minutes.
It was observed that the nanoparticle with the RNA staple presented a band at the same size as the all-DNA staple nanoparticle.

| Binder | binding result (SpCas9 [1]) | binding result (SpCas9 [2]) |
| --- | --- | --- |
| B1 | binds |  |
| B2 |  | binds |

Source: US20210317479, “NUCLEIC ACID ASSEMBLIES FOR USE IN TARGETED DELIVERY” (The Broad Institute, Inc., published 2021)
